The record followed here is patent publication US20230137139A1, “BIOSYNTHESIS OF CANNABINOIDS AND C[…]” (priority 2020, published 2023).

Experiment [1] relates to CBCA, THCA, and CBDA production. Put plainly: In vivo TS activity assay, Example 2 protein engineering of A. niger CBCAS, cultures fed olivetolic acid. The conditions noted are these: for Mean CBCA / Mean CBDA / Mean THCA: secondary screen, olivetolic acid (Table 8); for % CBCA / % CBDA / % THCA: share of terminal cannabinoid product profile. In kind it is cell-based, S. cerevisiae. The method, boiled down:
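S. cerevisiae expressing A. niger CBCAS mutants (MFalpha2/HDEL-tagged) grown 2 days at 30 °C in YEP+4% dextrose, then 4 days at 20 °C in YEP+4% galactose with 1 mM olivetolic acid, spiked every 24 h with 2% galactose and 1 mM olivetolic acid. 100 mM citrate pH 5.5 added, methanol-extracted; CBCA, THCA, CBDA quantified by LC-MS.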

The subject of experiment [2] is CBCVA, THCVA, and CBDVA production. Put plainly: In vivo TS activity assay, Example 2 protein engineering of A. niger CBCAS, cultures fed divaric acid. The conditions noted are these: for Mean CBCVA / Mean CBDVA / Mean THCVA: S. cerevisiae strains expressing A. niger CBCAS mutants; for Mean CBCVA / Mean CBDVA / Mean THCVA / average CBCVA titer compared with the A. niger positive control: secondary screen; for Mean CBCVA / Mean CBDVA / Mean THCVA / % CBCVA / % CBDVA / % THCVA: fed divaric acid; for % CBCVA / % CBDVA / % THCVA: share of terminal cannabinoid product profile. Type of experiment: cell-based, S. cerevisiae. The method, boiled down: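 S. cerevisiae expressing A. niger CBCAS point mutants (N-terminal MFalpha2, C-terminal HDEL signal peptides) grown 2 days at 30 °C in YEP+4% dextrose, then 4 days at 20 °C in YEP+4% galactose with 1 mM divaric acid plus daily 2% galactose and 1 mM divaric acid spikes, then 2 days with 100 mM sodium citrate pH 5.5. Methanol extracts analysed by LC-MS; quadruplicate.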

B1: t865751 (protein)
chain: MGNTTSIAGRDCLISALGGNSALAVFPNELLWTADVHEYNLNLPVTPAAITYPETAAQIAGVVKCASDYDYKVQARSGGHSFGNYGLGGADGAVVVDMKHFTQFSMDDETYEAVIGPGTTLNDVDIELYNNGKRAMAHGVCPTIKTGGHFTIGGLGPTARQWGLALDHVEEVEVVLANSSIVRASNTQNQDVFFAVKGAAANFGIVTEFKVRTEPAPGLAVQYSYTFNLGSTAEKAQFVKDWQSFISAKNLTRQFYNNMVIFDGDIILEGLFFGSKEQYDALGLEDHFAPKNPGNILVLTDWLGMVGHALEDTILKLVGNTPTWFYAKSLGFRQDTLIPSAGIDEFFEYIANHTAGTPAWFVTLSLEGGAINDVAEDATAYAHRDVLFWVQLFMVNPVGPISDTTYEFTDGLYDVLARAVPEAVGHAYLGCPDPRMEDAQQKYWRTNLPRLQELKEELDPKNTFHHPQGVMPA
modifications: expressed in S. cerevisiae strain
Turning to B1, in experiment [1], the “Mean CBCA” value turned out to be 31396.25 µg/L, the “Mean CBDA” value turned out to be 8775.99 µg/L, the “Mean THCA” value is 1709.83 µg/L and the “% CBCA” value worked out at 74.96%. In addition, in experiment [1], the “% CBDA” value was determined as 20.95% and the “% THCA” value is reported as 4.08%. Further, in experiment [2], the “Mean CBCVA” value was 3998.68 µg/L, the “Mean CBDVA” value is 0.00 µg/L, the “Mean THCVA” value came out at 1894.39 µg/L and the “average CBCVA titer compared with the A. niger positive control” value is “higher”. Further, in experiment [2], the “% CBCVA” value came to 67.85%, the “% CBDVA” value is listed as 0.00% and the “% THCVA” value turned out to be 32.15%.

B2: t865736 (protein)
chain: MGNTTSIAGRDCLISALGGNSALAVFPNELLWTADVHEYNLNLPVTPAAITYPETAAQIAGVVKCASDYDYKVQARSGGHSFGNYGLGGADGAVVVDMKHFTQFSMDDETYEAVIGPGTTLNDVDIELYNNGKRAMAHGVCPTIKTGGHFTIGGLGPTARQWGLALDHVEEVEVVLANSSIVRASNTQNQDVFFAVKGAAANFGIVTEFKVRTEPAPGLAVQYSYTFNLGSTAEKAQFVKDWQSFISAKNLTRQFYNNMVIFDGDIILEGLFFGSKEQYDALGLEDHFAPKNPGSILVLTDWLGMVGHALEDTILKLVGNTPTWFYAKSLGFRQDTLIPSAGIDEFFEYIANHTAGTPAWFVTLSLEGGAINDVAEDATAYAHRDVLFWVQLFMVNPVGPISDTTYEFTDGLYDVLARAVPESVGHAYLGCPDPRMEDAQQKYWRTNLPRLQELKEELDPKNTFHHPQGVMPA
With B2, in experiment [1], the “Mean CBCA” value turned out to be 24918.92 µg/L, the “Mean CBDA” value turned out to be 6931.79 µg/L, the “Mean THCA” value is 1690.72 µg/L and the “% CBCA” value was 74.29%. For the same molecule, in experiment [1], the “% CBDA” value was found to be 20.67% and the “% THCA” value amounted to 5.04%. Besides, in experiment [2], the “Mean CBCVA” value came out at 3847.79 µg/L, the “Mean CBDVA” value was 0.00 µg/L, the “Mean THCVA” value stood at 1963.40 µg/L and the “average CBCVA titer compared with the A. niger positive control” value is “higher”. Further, in experiment [2], the “% CBCVA” value stood at 66.21%, the “% CBDVA” value was 0.00% and the “% THCVA” value was found to be 33.79%.
